# Reference: paper PMC6416349
# Legend:
# Test in all cases: SPR; Biacore 3000, 25 °C; fungal protein immobilised on a CM5 chip by amine coupling (300 RU Eno1 and Mp65, 360 RU Als3); RgpA 10-100 nM injected at 20 µl/min; 10 mM HEPES, 150 mM NaCl, 0.005% surfactant, pH 7.4; global fit, 1:1 Langmuir model with baseline drift
# [1] = molecular target: C. albicans enolase 1 (Eno1) (C. albicans) (UniProt P30575)
# [2] = molecular target: C. albicans agglutinin-like sequence protein 3 (Als3), isolated from the hyphal cell wall (C. albicans) (UniProt Q59L12)
# [3] = molecular target: C. albicans cell wall mannoprotein 65 (Mp65) (C. albicans) (UniProt Q59XX2)
# UniProt Q59XX2, sequence (Q59XX2 33-378): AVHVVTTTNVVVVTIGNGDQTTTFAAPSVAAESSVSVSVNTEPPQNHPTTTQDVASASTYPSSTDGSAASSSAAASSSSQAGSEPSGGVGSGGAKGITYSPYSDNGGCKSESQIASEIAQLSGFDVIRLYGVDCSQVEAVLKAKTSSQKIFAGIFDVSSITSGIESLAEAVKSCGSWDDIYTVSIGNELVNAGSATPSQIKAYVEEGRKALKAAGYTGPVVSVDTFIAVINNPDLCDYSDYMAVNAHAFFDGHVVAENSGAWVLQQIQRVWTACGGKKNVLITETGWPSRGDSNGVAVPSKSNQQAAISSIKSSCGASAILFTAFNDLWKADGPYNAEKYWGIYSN
# UniProt Q59L12, sequence (Q59L12 18-1134): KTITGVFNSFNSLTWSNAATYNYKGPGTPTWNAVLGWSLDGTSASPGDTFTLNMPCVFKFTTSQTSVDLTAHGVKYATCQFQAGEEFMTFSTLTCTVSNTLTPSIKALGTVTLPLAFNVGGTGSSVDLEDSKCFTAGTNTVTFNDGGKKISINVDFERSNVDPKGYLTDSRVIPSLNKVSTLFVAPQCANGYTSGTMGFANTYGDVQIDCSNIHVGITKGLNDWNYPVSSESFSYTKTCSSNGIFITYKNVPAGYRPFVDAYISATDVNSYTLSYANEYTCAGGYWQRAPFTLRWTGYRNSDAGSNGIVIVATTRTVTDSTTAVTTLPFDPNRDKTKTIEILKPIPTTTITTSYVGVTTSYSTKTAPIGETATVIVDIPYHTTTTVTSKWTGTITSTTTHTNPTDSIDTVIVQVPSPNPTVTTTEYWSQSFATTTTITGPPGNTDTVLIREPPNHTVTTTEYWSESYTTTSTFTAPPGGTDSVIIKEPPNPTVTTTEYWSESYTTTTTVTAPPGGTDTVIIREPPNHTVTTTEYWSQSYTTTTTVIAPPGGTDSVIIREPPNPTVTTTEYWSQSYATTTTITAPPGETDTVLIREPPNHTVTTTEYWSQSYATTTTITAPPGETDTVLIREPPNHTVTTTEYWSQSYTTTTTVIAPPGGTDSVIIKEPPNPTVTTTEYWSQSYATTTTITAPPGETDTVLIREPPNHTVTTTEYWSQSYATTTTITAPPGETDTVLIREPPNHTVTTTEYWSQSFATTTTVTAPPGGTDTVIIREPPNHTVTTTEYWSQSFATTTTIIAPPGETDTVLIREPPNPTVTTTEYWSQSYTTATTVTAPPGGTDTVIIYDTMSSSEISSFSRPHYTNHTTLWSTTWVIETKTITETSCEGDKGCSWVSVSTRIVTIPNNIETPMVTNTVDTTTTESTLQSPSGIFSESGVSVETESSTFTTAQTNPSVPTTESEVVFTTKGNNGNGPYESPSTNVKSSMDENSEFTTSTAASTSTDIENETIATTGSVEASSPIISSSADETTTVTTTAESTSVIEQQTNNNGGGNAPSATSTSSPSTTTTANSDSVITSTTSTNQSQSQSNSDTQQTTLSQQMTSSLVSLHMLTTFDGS
# UniProt P30575, sequence (P30575 whole entry): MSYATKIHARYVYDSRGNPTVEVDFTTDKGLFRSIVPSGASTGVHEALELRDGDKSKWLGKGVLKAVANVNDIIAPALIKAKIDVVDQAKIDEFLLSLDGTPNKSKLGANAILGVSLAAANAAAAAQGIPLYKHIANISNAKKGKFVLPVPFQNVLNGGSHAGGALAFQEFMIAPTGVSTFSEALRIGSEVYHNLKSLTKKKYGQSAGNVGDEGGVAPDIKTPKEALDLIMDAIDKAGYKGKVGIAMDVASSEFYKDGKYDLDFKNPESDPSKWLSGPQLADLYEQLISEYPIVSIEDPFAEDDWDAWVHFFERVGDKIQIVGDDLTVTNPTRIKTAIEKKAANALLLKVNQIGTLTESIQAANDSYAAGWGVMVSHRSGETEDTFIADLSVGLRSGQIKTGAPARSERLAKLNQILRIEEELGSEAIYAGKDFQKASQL
substance,measurement,setting,value
P. gingivalis gingipain RgpA (HRgpA) (from UniProt P28784 228-991) (enzyme),Kd,[1],2.97 nM
same,Kd,[2],9.96 nM
same,Kd,[3],9.44 nM
